Experiment: High throughput mass spectrometry screen of triazine hydrolase library against about 15 triazine derivatives
Assay type: biochemical
Conditions: not exclusive; for Substrate Activity: nme-atrazine: column lists substrates on which the library member shows preferred triazine hydrolase activity; for Substrate Activity: ametryn: preferred substrates
[1] = Table 5, the value is the triazine substrate the library member (atzA-based variant) is active on, preferred members
[2] = substrate propazine, column indicates preferred embodiments

Molecule	Substrate Activity [1]	Substrate Activity: ametryn	other results
113 (protein) MQTLSIQHGTLVTMDQYRRVLGDSWVHVQDGRIVALGVHAESVPPPADRVIDARGKVVLPGFINAHTHVNQILLRGGPSHGRQFYDWLFNVLYPGQKAMRPEVAVAVRLYCAEAVRSGITTINEEADSAIYPGNIEAAMAVYGEVGVRVVYARMFFDRMDGRIQGYVDALKARSPQVELCSIMEETAVAKDRITALSDQYHGTAGGRISVWPAPATTTTVTVEGMRWAQAFARDRAVMWTLHMAESDHDERIIGGSPAEYMECYGLLDERLQVAHCVYFDRKDVRLLHRHNVKVASQVVSNAYLGSGVAPVPEMVERGMAVGIGTDNDNSCDSVNMIGDMKFMAHIHRAVHRDADVLTPEKILEMATIDGARSLGMDHEIGSIETGKRADLILLDLRHPQTTPHHHLAATIVFQAYGNEVDTVLIDGNVVMENRRLSFLPPERELAFLEEAQSRATAILQRANMVANPAWRSL	atratone		
117 (protein) MQTLSIQHGTLVTMDQYRRVLGDSWVHVQDGRIVALGVHAESVPPPADRVIDARGKVVLPGFINAHTHVNQILLRGGPSHGRQFYDWLFNVLYPGQKAMRPEVAVAVRLYCAEAVRSGITTINEEADSAIYPGNIEAAMAVYGEVGVRVVYARMFFDRMDGRIQGYVDALKARSPQVELCSIMEETAVAKDRITALSDQYHGTAGGRISVWPAPATTTTVTVEGMRWAQAFARDRAVMWTLHMAESDHDERIIGWSPAEYMECYGLLDERLQVAHCVYFDRKDVRLLHRHNVKVASQVVSNAYLGSGVAPVPEMVERGMAVGIGTDNDNSCDSVNMIGDMKFMAHIHRAVHRDADVLTPEKILEMATIDGARSLGMDHEIGSIETGKRADLILLDLRHPQTTPHHHLAATIVFQAYGNEVDTVLIDGNVVMENRRLSFLPPERELAFLEEAQSRATAILQRANMVANPAWRSL	atratone		
124 (protein) MQTLSIQHGTLVTMDQYRRVLGDSWVHVQDGRIVALGVHAESVPPPADRVIDARGKVVLPGFINAHTHVNQILLRGGPSHGRQFYDWLFNVLYPGQKAMRPEVAVAVRLYCAEAVRSGITTINEEADSAIYPGNIEAAMAVYGEVGVRVVYARMFFDRMDGRIQGYVDALKARSPQVELCSIMEETAVAKDRITALSDQYHGTAGGRISVWPAPATTTTVTVEGMRWAQAFARDRAVMWTLHMAESDHDERILGGSPAEYMECYGLLDERLQVAHCVYFDRKDVRLLHRHNVKVASQVVSNAYLGSGVAPVPEMVERGMAVGIGTDNNNSSDSVNMIGDMKFMAHIHRAVHRDADVLTPEKILEMATIDGARSLGMDHEIGSIETGKRADLILLDLRHPQTTPHHHLAATIVFQAYGNEVDTVLIDGNVVMENRRLSFLPPERELAFLEEAQSRATAILQRANMVANPAWRSL	atrazine		
345 (protein) MQTLSIQHGTLVTMDQYRRVLGDSWVHVQDGRIVALGVHAESVPPPADRVIDARGKVVLPGFINAHTHVNQILLRGGPSHGRQLYDWLFNVLYPGQKAMRPEVAVAVRLYCAEAVRSGITTINEEADSAIYPGNIEAAMAVYGEVGVRVVYARMFFDRMDGRIQGYVDALKARSPQVELCSIMEETAVAKDRITALSDQYHGTAGGRISVWPAPATITTVTVEGMRWAQAFARDRAVMWTLHMAESDHDERILGGSPAEYMECYGLLDERLQVAHCVYFDRKDVRLLHRHNVKVASQVVSNAYLGSGVAPVPEMVERGMAVGIGTDNDNSCDSVNMIGDMKFMAHIHRAVHRDADVLTPEKILEMATIDGARSLGMDHEIGSIETGKRADLILLDLRHPQTTPHHHLAATIVFQAYGNEVDTVLIDGNVVMENRRLSFLPPERELAFLEEAQSRATAILQRANMVANPAWRSL			Substrate Activity: nme-atrazine: nme-atrazine
382 (protein) MQTLSIQHGTLVTMDQYRRVLGDSWVHVQDGRIVALGVHAESVPPPADRVIDARGKVVLPGFINAHTHVNQILLRGGPSHGRQLYDWLFNVLYPGQKAMRPEVAVAVRLYCAEAVRSGITTINEEADSAIYPGNIEAAMAVYGEVGVRVVYARMFFDRMDGRIQGYVDALKARSPQVELCSIMEETAVAKDRITALSDQYHGTAGGRISVWPAPATTTTVTVEGMRWAQAFARDRAVMWTLHMAESDHDERILGWSPAEYMECYGLLDERLQVAHCVYFDRKDVRLLHRHNVKVASQVVSNAYLGSGVAPVPEMVERGMAVGIGTDNDNSSDSVNMIGDMKFMAHIHRAVHRDADVLTPEKILEMATIDGARSLGMDHEIGSIETGKRADLILLDLRHPQTTPHHHLAATIVFQAYGNEVDTVLIDGNVVMENRRLSFLPPERELAFLEEAQSRATAILQRANMVANPAWRSL		ametryn	
370 (protein) MQTLSIQHGTLVTMDQYRRVLGDSWVHVQDGRIVALGVHAESVPPPADRVIDARGKVVLPGFINAHTHVNQILLRGGPSHGRQLYDWLFNVLYPGQKAMRPEVAVAVRLYCAEAVRSGITTINEEADSAIYPGNIEAAMAVYGEVGVRVVYARMFFDRMDGRIQGYVDALKARSPQVELCSIMEETAVAKDRITALSDQYHGTAGGRISVWPAPATTTTVTVEGMRWAQAFARDRAVMWTLHMAESDHDERIIGGSPAEYMECYGLLDERLQVAHCVYFDRKDVRLLHRHNVKVASQVVSNAYLGSGVAPVPEMVERGMAVGIGTDNDNSSDSVNMIGDMKFMAHIHRAVHRDADVLTPEKILEMATIDGARSLGMDHEIGSIETGKRADLILLDLRHPQTTPHHHLAATIVFQAYGNEVDTVLIDGNVVMENRRLSFLPPERELAFLEEAQSRATAILQRANMVANPAWRSL		ametryn	
244 (protein) MQTLSIQHGTLVTMDQYRRVLGDSWVHVQDGRIVALGVHAESVPPPADRVIDARGKVVLPGFINAHTHVNQILLRGGPSHGRQFYDWLFNVVYPGQKAMRPEVAVAVRLYCAEAVRSGITTINEEADSAIYPGNIEAAMAVYGEVGVRVVYARMFFDRMDGRIQGYVDALKARSPQVELCSIMEETAVAKDRITALSDQYHGTAGGRISVWPAPATTTTVTVEGMRWAQAFARDRAVMWTLHMAESDHDERIIGGSPAEYMECYGLLDERLQVAHCVYFDRKDVRLLHRHNVKVASQVVSNAYLGSGVAPVPEMVERGMAVGIGTDNNNSSDSVNMIGDMKFMAHIHRAVHRDADVLTPEKILEMATIDGARSLGMDHEIGSIETGKRADLILLDLRHPQTTPHHHLAATIVFQAYGNEVDTVLIDGNVVMENRRLSFLPPERELAFLEEAQSRATAILQRANMVANPAWRSL			Substrate Activity [2]: propazine
314 (protein) MQTLSIQHGTLVTMDQYRRVLGDSWVHVQDGRIVALGVHAESVPPPADRVIDARGKVVLPGFINAHTHVNQILLRGGPSHGRQLYDWLFNVLYPGQKAMRPEVAVAVRLYCAEAVRSGITTINEDADSAIYPGNIEAAMAVYGEVGVRVVYARMFFDRMDGRIQGYVDALKARSPQVELCSIMEETAVAKDRITALSDQYHGTAGGRISVWPAPATTTTVTVEGMRWAQAFARDRAVMWTLHMAESDHDERILGGSPAEYMECYGLLDERLQVAHCVYFDRKDVRLLHRHNVKVASQVVSNAYLGSGVAPVPEMVERGMAVGIGTDNDNSSDSVNMIGDMKFMAHIHRAVHRDADVLTPEKILEMATIDGARSLGMDHEIGSIETGKRADLILLDLRHPQTTPHHHLAATIVFQAYGNEVDTVLIDGNVVMENRRLSFLPPERELAFLEEAQSRATAILQRANMVANPAWRSL		ametryn	
318 (protein) MQTLSIQHGTLVTMDQYRRVLGDSWVHVQDGRIVALGVHAESVPPPADRVIDARGKVVLPGFINAHTHVNQILLRGGPSHGRQLYDWLFNVLYPGQKAMRPEVAVAVRLYCAEAVRSGITTINEDADSAIYPGNIEAAMAVYGEVGVRVVYARMFFDRMDGRIQGYVDALKARSPQVELCSIMEETAVAKDRITALSDQYHGTAGGRISVWPAPATTTTVTVEGMRWAQAFARDRAVMWTLHMAESDHDERILGWSPAEYMECYGLLDERLQVAHCVYFDRKDVRLLHRHNVKVASQVVSNAYLGSGVAPVPEMVERGMAVGIGTDNDNSSDSVNMIGDMKFMAHIHRAVHRDADVLTPEKILEMATIDGARSLGMDHEIGSIETGKRADLILLDLRHPQTTPHHHLAATIVFQAYGNEVDTVLIDGNVVMENRRLSFLPPERELAFLEEAQSRATAILQRANMVANPAWRSL		ametryn	
349 (protein) MQTLSIQHGTLVTMDQYRRVLGDSWVHVQDGRIVALGVHAESVPPPADRVIDARGKVVLPGFINAHTHVNQILLRGGPSHGRQLYDWLFNVLYPGQKAMRPEVAVAVRLYCAEAVRSGITTINEEADSAIYPGNIEAAMAVYGEVGVRVVYARMFFDRMDGRIQGYVDALKARSPQVELCSIMEETAVAKDRITALSDQYHGTAGGRISVWPAPATITTVTVEGMRWAQAFARDRAVMWTLHMAESDHDERILGWSPAEYMECYGLLDERLQVAHCVYFDRKDVRLLHRHNVKVASQVVSNAYLGSGVAPVPEMVERGMAVGIGTDNDNSCDSVNMIGDMKFMAHIHRAVHRDADVLTPEKILEMATIDGARSLGMDHEIGSIETGKRADLILLDLRHPQTTPHHHLAATIVFQAYGNEVDTVLIDGNVVMENRRLSFLPPERELAFLEEAQSRATAILQRANMVANPAWRSL			Substrate Activity: nme-atrazine: nme-atrazine
128 (protein) MQTLSIQHGTLVTMDQYRRVLGDSWVHVQDGRIVALGVHAESVPPPADRVIDARGKVVLPGFINAHTHVNQILLRGGPSHGRQFYDWLFNVLYPGQKAMRPEVAVAVRLYCAEAVRSGITTINEEADSAIYPGNIEAAMAVYGEVGVRVVYARMFFDRMDGRIQGYVDALKARSPQVELCSIMEETAVAKDRITALSDQYHGTAGGRISVWPAPATTTTVTVEGMRWAQAFARDRAVMWTLHMAESDHDERILGWSPAEYMECYGLLDERLQVAHCVYFDRKDVRLLHRHNVKVASQVVSNAYLGSGVAPVPEMVERGMAVGIGTDNNNSSDSVNMIGDMKFMAHIHRAVHRDADVLTPEKILEMATIDGARSLGMDHEIGSIETGKRADLILLDLRHPQTTPHHHLAATIVFQAYGNEVDTVLIDGNVVMENRRLSFLPPERELAFLEEAQSRATAILQRANMVANPAWRSL	atrazine		
248 (protein) MQTLSIQHGTLVTMDQYRRVLGDSWVHVQDGRIVALGVHAESVPPPADRVIDARGKVVLPGFINAHTHVNQILLRGGPSHGRQFYDWLFNVVYPGQKAMRPEVAVAVRLYCAEAVRSGITTINEEADSAIYPGNIEAAMAVYGEVGVRVVYARMFFDRMDGRIQGYVDALKARSPQVELCSIMEETAVAKDRITALSDQYHGTAGGRISVWPAPATTTTVTVEGMRWAQAFARDRAVMWTLHMAESDHDERIIGWSPAEYMECYGLLDERLQVAHCVYFDRKDVRLLHRHNVKVASQVVSNAYLGSGVAPVPEMVERGMAVGIGTDNNNSSDSVNMIGDMKFMAHIHRAVHRDADVLTPEKILEMATIDGARSLGMDHEIGSIETGKRADLILLDLRHPQTTPHHHLAATIVFQAYGNEVDTVLIDGNVVMENRRLSFLPPERELAFLEEAQSRATAILQRANMVANPAWRSL			Substrate Activity [2]: propazine
